{"source": "patent US20110038856A1", "about": "“METHODS OF TREATING NEOPLASTIC, AUTOIMMUNE AND INFLAMMATORY DISEASES” (Seattle Genetics, Inc., priority 2006, published 2011)", "key": {"[1]": {"biological_target": "T1, CD33 (Homo sapiens, UniProt P20138)", "T1 sequence (P20138 18-364)": "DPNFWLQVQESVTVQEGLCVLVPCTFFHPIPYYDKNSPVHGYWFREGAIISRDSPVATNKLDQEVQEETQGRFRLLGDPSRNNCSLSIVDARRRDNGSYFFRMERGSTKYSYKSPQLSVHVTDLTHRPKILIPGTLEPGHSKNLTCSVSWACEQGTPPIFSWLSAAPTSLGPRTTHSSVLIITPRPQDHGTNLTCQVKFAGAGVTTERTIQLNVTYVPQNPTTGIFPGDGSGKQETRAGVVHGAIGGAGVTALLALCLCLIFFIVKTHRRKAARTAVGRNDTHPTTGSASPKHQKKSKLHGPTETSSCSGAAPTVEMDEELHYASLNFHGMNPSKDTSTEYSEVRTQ", "test": "Recruitment of SHP phosphatases / Syk to CD33 in HL-60 cells (immunoprecipitation, Western blot)", "type": "cell-based", "design": "endogenous in cells; host or cells: HL-60 (ATCC); primary human CD14+ monocytes (Cambrex); macrophages derived from human PBMCs", "protocol": "To determine whether the humanized M195 antibody also recruits SHP phosphatases, HL-60 cells were treated with soluble or cross-linked anti-CD33 antibodies. Cell extracts were prepared and CD33 was immunoprecipitated with an anti-CD33 antibody (MY9 clone). Western blotting was performed with an anti-SHP-1 antibody (sc-287; Santa Cruz Biotechnology, Inc., Santa Cruz, Calif.)."}, "[2]": {"tested_on": "primary human CD14+ monocytes", "quoted_text": "Macrophages were harvested, counted, and cultured in 96-well plates at 35,000 cells per well. G-CSF-mobilized CD14^+ monocytes (Cambrex) were cultured in 96-well plates at 100,000 cells per well (adherent cells) in sterile polypropylene dishes (non-adherent cells)."}, "[3]": {"tested_on": "KG-1 AML cell line", "test": "Cytokine production by KG-1 AML cell line", "type": "cell-based", "settings": "2.5 μg/ml pre-treatment, then 1 ng/ml TNF-alpha; media harvested 18 h later; versus control antibody", "protocol": "Media was harvested 18 h later for cytokine analyses."}, "[4]": {"biological_target": "T1, CD33", "test": "CD33 tyrosine phosphorylation in CD33-positive AML lines (CD33 immunoprecipitation, anti-phosphotyrosine Western blot)", "type": "cell-based", "design": "endogenous in cells; host or cells: HL-60 (ATCC); primary human CD14+ monocytes (Cambrex); macrophages derived from human PBMCs", "protocol": "CD33-positive cell lines were treated with anti-CD33 antibodies (lintuzumab and certain commercially available antibodies). Cell extracts were prepared and CD33 was immunoprecipitated using an anti-CD33 antibody (MY9 clone; Beckman Coulter, Calif.). Western blotting was performed with an anti-phosphotyrosine antibody (4G10; Upstate Biotechnologies, Inc., Lake Placid, N.Y.). […] Two forms of CD33 were detected (due to either splicing of CD33 mRNA or post-translational modification of CD33)."}}}
{"substance": "SGN-33: anti-CD33 antibody, a humanized version of mouse monoclonal antibody M195", "values": [{"measurement": "recruitment of SHP-2", "setting": "[1]; data not shown", "result": "did not recruit"}, {"measurement": "recruitment of Syk", "setting": "[1]; data not shown", "result": "did not recruit"}, {"measurement": "recruitment of SHP-1 to CD33", "setting": "[1]; soluble or cross-linked antibody, FIG. 3", "result": "recruited SHP-1 to CD33"}, {"measurement": "cell viability", "setting": "[2]", "result": "not due to an adverse effect"}, {"measurement": "production of IL-8, IP-10, M11b, RANTES, and MCP-1", "setting": "[3]", "result": "reduced the production"}, {"measurement": "CD33 tyrosine phosphorylation, soluble versus cross-linked antibody", "setting": "[4]; HL-60 and U937 cells, FIG. 2", "result": "more effective than cross-linked antibody"}, {"measurement": "CD33 tyrosine phosphorylation", "setting": "[4]; HL-60 and U937 cells, soluble or cross-linked antibody, compared with control human IgG1, FIG. 2", "result": "stimulated CD33 tyrosine phosphorylation"}, {"measurement": "CD33 tyrosine phosphorylation", "setting": "[4]; HL-60 cells, both soluble and cross-linked antibody, FIG. 1", "result": "stimulated CD33 tyrosine phosphorylation"}]}
